The results in this text go back to patent publication US20240352111A1 (Regeneron, published 2024).

Test [1] has as its target T1, mArtemin-MMH (mouse).
T1 construct: also called msArtemin-MMH; msARTN.mmh
T1 chain: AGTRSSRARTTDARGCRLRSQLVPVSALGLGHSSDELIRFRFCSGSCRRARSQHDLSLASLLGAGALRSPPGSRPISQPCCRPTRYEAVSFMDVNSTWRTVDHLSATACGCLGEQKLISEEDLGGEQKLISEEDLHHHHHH
Put plainly: BLI (Octet HTX), mAb captured on AHC tips, artemin at 3.75 nM, 25 C. As to the method: (§1) The entire experiment was performed at 25° C. in 10 mM HEPES, 150 mM NaCl, 3 mM EDTA, 0.02% NaN3 and 0.05% v/v Surfactant Tween-20, 1 mg/mL BSA, pH7.4 (HBS-EBT) buffer with the plate shaking at a speed of 1000 rpm. Different Artemin mAbs were first captured onto anti-human antibody (AHC) coated Octet biosensor tips (Fortebio Inc, #18-5064) by submerging the biosensor tips for 40 seconds in wells containing 2 μg/mL of Artemin mAb. […] All the Artemin and Artemin mAb samples were prepared in HBS-EBT buffer. The real-time binding response was monitored during the entire course of the experiment and the binding response at the end of every step was recorded.
Background: BLI is a label-free optical method that tracks binding on a fibre tip over time.

Test [2] addresses T2, hArtemin-MMH (human).
T2 construct: also called hARTN.mmh; hARTN (A108-G220).mmh
T2 chain: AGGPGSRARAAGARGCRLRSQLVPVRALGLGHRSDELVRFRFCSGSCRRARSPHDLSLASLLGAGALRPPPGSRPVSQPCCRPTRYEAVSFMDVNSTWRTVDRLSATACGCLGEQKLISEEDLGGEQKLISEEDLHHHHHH
The test is described as above. How it is done: as §1

Test [3] deals with T3, MfArtemin-MMH (cynomolgous monkey (Macaca fascicularis)).
T3 construct: also called mfARTN.mmh; mfARTN (A108-G22).mmh
T3 chain: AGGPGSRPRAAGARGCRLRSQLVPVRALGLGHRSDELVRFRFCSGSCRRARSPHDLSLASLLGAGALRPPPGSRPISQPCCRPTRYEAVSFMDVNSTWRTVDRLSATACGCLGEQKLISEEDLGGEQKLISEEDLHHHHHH
The test is described as above. How it is done: as §1

In test [4] the target is T1, mArtemin-MMH. In words: SPR Biacore T200, mArtemin-MMH captured by anti-myc mAb, mAb injected, 25 C. As to the method: (§2) The equilibrium dissociation constant (KD) for Artemin binding to each of Artemin monoclonal antibodies (mAbs) H4H33331P, H4H33335P, H4H33336P, and H4H33349P was determined using a real-time surface plasmon resonance Biacore T200 biosensor. All binding studies were performed in 10 mM HEPES, 150 mM NaCl, 3 mM EDTA, and 0.05% v/v Surfactant Tween-20, pH 7.4 (HBS-ET) running buffer at 25° C. The Biacore CM4 sensor chip surface was first derivatized by amine coupling with anti-myc mAb to capture hArtemin-MMH, MfArtemin-MMH, or mArtemin-MMH. Different concentrations of Artemin mAbs (60-2.2 nM, 3-fold serial dilution) prepared in […] running buffer were injected over the Artemin-captured surfaces for 3 min at a flow rate of 50 μL/min and their dissociation in HBS-ET running buffer was monitored for 5 minutes. At the end of each cycle, the Artemin-captured surfaces were regenerated using a 6 sec injection of 20 mM phosphoric acid.
(§3) The association rate (kₐ) and dissociation rate (kd) were determined by fitting the real-time binding sensorgrams to a 1:1 binding model with mass transport limitation using Scrubber 2.0c curve-fitting software. Binding dissociation equilibrium constant (KD) and dissociative half-life (t½) were calculated from the kinetic rates as: KD (M)=kd/kₐ, and t_{1/2} (min)=[In2/(60*kd)].
Background: Surface plasmon resonance follows binding to a sensor surface in real time, without labels.

The target in test [5] is T3, MfArtemin-MMH. Put plainly: blocking ELISA, antibody blocks 400 pM mfARTN.mmh binding to plate-coated hGFRa3.hFc. As to the method:
Experiments were carried out using the following procedures. Plates were coated with hGFRa3.hFc at 2 μg/ml in PBS on a 96-well microtiter plate at 4° C. overnight for all three assays. […] In other microtiter plates, a constant amount of either 75 pM hARTN.mmh, 400 pM mfARTN.mmh, or 150 pM msARTN.mmh were separately bound with anti-ARTN antibodies and an irrelevant IgG4 antibody control at a serial dilution series from 0.0017 nM to 100 nM in PBS+0.5% BSA. After a one-hour incubation, the mixture solutions were transferred to microtiter plates coated with hGFRa3.hFc. After one hour of incubation at RT, the wells were washed with PBST, and plate-bound ARTN was detected with an anti-penta-His antibody conjugated with horseradish peroxidase (HRP) (Qiagen). The plates were then developed using TMB substrate solution (BD Biosciences, #555214) according to manufacturer's recommendation and absorbance at 450 nm was measured on a Victor X5 plate reader.
Binding data were analyzed using a sigmoidal dose-response model within Prism™ software (GraphPad). […] If the calculated IC50 value was below the LLOA, less than LLOA was reported. Percent blocking at 100 nM antibody was calculated based on the background-corrected binding signal observed at the highest antibody concentration tested using the formula listed below and reported for all tested antibodies: […]
(In general: In an ELISA, binding on a coated surface is turned into a signal by an enzyme label.)

In test [6] the target is T1, mArtemin-MMH. Put plainly: BLI (Octet HTX), mAb captured on AHC tips, artemin at 15 nM, 25 C. As to the method: as §1
The target in test [7] is T2, hArtemin-MMH. Described as above. As to the method: as §1
The target of test [8] is T3, MfArtemin-MMH. The test is described as above. As to the method: as §1
Test [9] has as its target T2, hArtemin-MMH. Put plainly: SPR Biacore T200, hArtemin-MMH captured by anti-myc mAb, mAb injected, 25 C. How it is done:
as §2, §3

In test [10] the target is T1, mArtemin-MMH. In words: BLI (Octet HTX), mAb captured on AHC tips, artemin at 7.5 nM, 25 C. How it is done:
as §1

Test [11] deals with T2, hArtemin-MMH. The description is as above. As to the method:
as §1

In test [12] the target is T3, MfArtemin-MMH. Described as above. How it is done: as §1

B1: H4H33349P (antibody, human IgG4 S228P, kappa, V domains shown)
VH: QVQLVESGGGVVQPGRSLRLSCEASGFTFSDYDLHWVRQAPGKGLEWVAFISNDGSNEYYPKSVKGRFSISRDNSKNTLYLQMNSLRAEDTAVYHCTKERDYYYDSSGSLDYWGQGTLVTVSS
VL: DIQMTQSPSSLSASVGDRVTITCRASQTINNYLNWYQQKPGKAPKLLIYTTSGLQSGVPSRFSGRGSGTDFTLAISSLQPEDFATYYCQQSYHSPFTFGPGTKVDIKR
notes: Fully human antibody; also called Artemin mAb; anti-ARTN antibody
By Kd is commonly meant the free concentration of one partner at which half of the binding sites on the other are occupied at equilibrium, for simple one-to-one binding. The term koff denotes the rate constant with which the complex falls apart. A word on the kon: it is the second-order rate constant of association. A word on the t½: it is the time in which the quantity being followed falls by half. As for B1, the “Artemin Binding Response (nm)” value with mArtemin-MMH [1] worked out at 0.07 nm; with hArtemin-MMH [2], 0.07 nm; with MfArtemin-MMH [3] it was 0.02 nm; in the test with mArtemin-MMH [6], 0.11 nm; with hArtemin-MMH [7], 0.11 nm; in the test with MfArtemin-MMH [8], 0.09 nm. Besides, the entries for the “Artemin Binding Response (nm)” value in the test with mArtemin-MMH [10], in the test with hArtemin-MMH [11] and in the test with MfArtemin-MMH [12] were 0.11 nm, 0.11 nm and 0.04 nm, respectively. Besides, the “60 nM Artemin mAb Bound (RU)” value in the test with mArtemin-MMH [4] amounted to 20 RU; with hArtemin-MMH [9], 18 RU. The results for the Kd in the test with mArtemin-MMH [4] and with hArtemin-MMH [9] were 0.113 nM and 0.119 nM, respectively. The koff in the test with mArtemin-MMH [4] was determined as 5.91e-05 s⁻¹; in the test with hArtemin-MMH [9] it was 5.9e-05 s⁻¹. Also, the kon in the test with mArtemin-MMH [4] came to 521000 M⁻¹ s⁻¹; in the test with hArtemin-MMH [9], 497000 M⁻¹ s⁻¹. For the same molecule, the “t½” value with mArtemin-MMH [4] worked out at 3.25 h; with hArtemin-MMH [9] it was 3.27 h. The “% Blocking with 100 nM Ab” value in the test with MfArtemin-MMH [5] came to 88%.

B2: H4H33331P (antibody, human IgG4 S228P, kappa, V domains shown)
VH: EVQLVESGGDLVQPGGSLKLSCAASGFTFSGSAMHWVRQASGKGLEWVGRIRNKVHRYATEYGASVKGRFTISRDDSKNTAYLQMNSLKIEDTAVYYCVVVVPGSIEAFDIWGQGTMVTVSS
VL: DIQMTQSPSSLSASVGDRVTITCRASQSISTYLNWYQQKPGKAPNLLIYAASTLESGVPSRFSGSGSGTDFTLTISSLQPEDFEIYYCQQSYNIPWTFGQGTKVEIKR
notes: Fully human antibody (human variable and constant domains) from a VELOCIMMUNE mouse; also called Artemin mAb; anti-ARTN antibody
As usually defined, the IC50 is the midpoint of a concentration-inhibition curve. For the molecule B2, the “Artemin Binding Response (nm)” value stood at 0.03 nm with mArtemin-MMH [1]; 0.02 nm in the test with hArtemin-MMH [2]; 0 nm in the test with MfArtemin-MMH [3]; 0.08 nm with mArtemin-MMH [6]; 0.11 nm with hArtemin-MMH [7]; 0.03 nm with MfArtemin-MMH [8]. The “Artemin Binding Response (nm)” value with mArtemin-MMH [10] turned out to be 0.07 nm; in the test with hArtemin-MMH [11] it was 0.07 nm; with MfArtemin-MMH [12] it was 0.01 nm. Moreover, the “60 nM Artemin mAb Bound (RU)” value with mArtemin-MMH [4] and with hArtemin-MMH [9] was 7 RU throughout. The dissociation constant Kd worked out at 0.346 nM with mArtemin-MMH [4] and 2.91 nM in the test with hArtemin-MMH [9]. In addition, the values for the koff with mArtemin-MMH [4] and in the test with hArtemin-MMH [9] were 5.4e-05 s⁻¹ and 0.000366 s⁻¹, respectively. Further, the kon with mArtemin-MMH [4] is 156000 M⁻¹ s⁻¹; in the test with hArtemin-MMH [9], 126000 M⁻¹ s⁻¹. For the same molecule, the “t½” value with mArtemin-MMH [4] stood at 3.57 h; with hArtemin-MMH [9], 0.533 h. Besides, in the test with MfArtemin-MMH [5], the “% Blocking with 100 nM Ab” value was found to be 90%. Moreover, the IC50 in the test with MfArtemin-MMH [5] was found to be 0.105 nM.

B3: H4H33336P (antibody, human IgG4 S228P, kappa, V domains shown)
VH: QVQLVESGGGVVQPGRSLRLSCVASGFILSHYGMHWVRQAPGKGLEWVAVIWFDGTNKYYADSVKGRFTVSRDNSKNTLYMQMNSLRAEDTAVYYCARDPPPARRGNYNGMDVWGQGTTVTVSS
VL: DIQMTQSPSSLSASVGDRVTITCRASQDIRNDLGWYQQKPGKAPKRLIFGASSLQSGVPLRFSGSGSGTEFTLTINNLQPEDFATFYCLQDNSYPWTFGQGTKVEIKR
notes: as for B1
Turning to B3, the “Artemin Binding Response (nm)” value in the test with mArtemin-MMH [1] came out at 0.01 nm; in the test with hArtemin-MMH [2] it was 0.03 nm; in the test with MfArtemin-MMH [3], 0.01 nm; in the test with mArtemin-MMH [6], 0.01 nm; with hArtemin-MMH [7], 0.09 nm; with MfArtemin-MMH [8], 0.03 nm. Besides, the “Artemin Binding Response (nm)” value with mArtemin-MMH [10] is 0 nm; with hArtemin-MMH [11] it was 0.05 nm; with MfArtemin-MMH [12] it was 0.01 nm. The “60 nM Artemin mAb Bound (RU)” value was determined as 3 RU with mArtemin-MMH [4] and 15 RU with hArtemin-MMH [9]. Further, the “% Blocking with 100 nM Ab” value with MfArtemin-MMH [5] worked out at 86%. The same molecule yielded a Kd with hArtemin-MMH [9] of 0.15 nM. The koff with hArtemin-MMH [9] was found to be 3.75e-05 s⁻¹. Moreover, in the test with hArtemin-MMH [9], the kon worked out at 249000 M⁻¹ s⁻¹. In addition, the “t½” value in the test with hArtemin-MMH [9] was 5.13 h.
